Positions of bridges follow the written chain, without caps; N, C: chain ends. Non-standard residues stand in square brackets, D forms with d. Primed or numbered codes have the meaning given here. No end group written: not given here. mXylyl(3) = bridging moiety between the two residues given in brackets; mXylyl″ = bridging moiety between the two marked residues; Trp(7-aza) = N[C@@H](Cc1c[nH]c2ncccc12)C(=O)O; mXylyl(4) = bridging moiety between residues; Phg = N[C@H](C(=O)O)c1ccccc1; NMeS = CN[C@@H](CO)C(=O)O; Nva = CCC[C@H](N)C(=O)O
The binders below were run against primate C5 protein (primate, UniProt A0A2K5U1T1 19-673; A0A2K5U1T1 678-1676, Mature C5 is a disulfide-linked heterodimer of beta and alpha chains; it is glycosylated. The letters do not carry either feature.) (assay: cell-based or functional assay).
Chain of primate C5 protein (beta, as listed by the source limits assumed, chain 1 of 2): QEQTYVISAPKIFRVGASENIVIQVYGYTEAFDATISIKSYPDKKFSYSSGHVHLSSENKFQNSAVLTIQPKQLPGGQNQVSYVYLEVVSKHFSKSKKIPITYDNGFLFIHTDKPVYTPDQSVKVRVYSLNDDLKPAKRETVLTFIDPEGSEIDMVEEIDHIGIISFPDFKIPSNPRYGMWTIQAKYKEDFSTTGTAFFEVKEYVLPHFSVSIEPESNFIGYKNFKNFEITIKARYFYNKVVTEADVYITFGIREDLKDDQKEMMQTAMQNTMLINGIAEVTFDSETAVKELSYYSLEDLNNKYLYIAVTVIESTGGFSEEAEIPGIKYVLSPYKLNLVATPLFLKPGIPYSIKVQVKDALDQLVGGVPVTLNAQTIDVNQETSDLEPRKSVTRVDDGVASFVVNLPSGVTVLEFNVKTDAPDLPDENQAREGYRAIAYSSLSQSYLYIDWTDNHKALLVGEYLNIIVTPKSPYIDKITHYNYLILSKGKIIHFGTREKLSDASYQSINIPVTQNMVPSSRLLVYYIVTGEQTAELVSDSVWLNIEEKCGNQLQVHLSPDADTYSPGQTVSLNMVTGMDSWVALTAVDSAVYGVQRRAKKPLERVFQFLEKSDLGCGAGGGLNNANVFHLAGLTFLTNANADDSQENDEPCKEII
Chain of primate C5 protein (alpha, as listed by the source limits assumed, chain 2 of 2): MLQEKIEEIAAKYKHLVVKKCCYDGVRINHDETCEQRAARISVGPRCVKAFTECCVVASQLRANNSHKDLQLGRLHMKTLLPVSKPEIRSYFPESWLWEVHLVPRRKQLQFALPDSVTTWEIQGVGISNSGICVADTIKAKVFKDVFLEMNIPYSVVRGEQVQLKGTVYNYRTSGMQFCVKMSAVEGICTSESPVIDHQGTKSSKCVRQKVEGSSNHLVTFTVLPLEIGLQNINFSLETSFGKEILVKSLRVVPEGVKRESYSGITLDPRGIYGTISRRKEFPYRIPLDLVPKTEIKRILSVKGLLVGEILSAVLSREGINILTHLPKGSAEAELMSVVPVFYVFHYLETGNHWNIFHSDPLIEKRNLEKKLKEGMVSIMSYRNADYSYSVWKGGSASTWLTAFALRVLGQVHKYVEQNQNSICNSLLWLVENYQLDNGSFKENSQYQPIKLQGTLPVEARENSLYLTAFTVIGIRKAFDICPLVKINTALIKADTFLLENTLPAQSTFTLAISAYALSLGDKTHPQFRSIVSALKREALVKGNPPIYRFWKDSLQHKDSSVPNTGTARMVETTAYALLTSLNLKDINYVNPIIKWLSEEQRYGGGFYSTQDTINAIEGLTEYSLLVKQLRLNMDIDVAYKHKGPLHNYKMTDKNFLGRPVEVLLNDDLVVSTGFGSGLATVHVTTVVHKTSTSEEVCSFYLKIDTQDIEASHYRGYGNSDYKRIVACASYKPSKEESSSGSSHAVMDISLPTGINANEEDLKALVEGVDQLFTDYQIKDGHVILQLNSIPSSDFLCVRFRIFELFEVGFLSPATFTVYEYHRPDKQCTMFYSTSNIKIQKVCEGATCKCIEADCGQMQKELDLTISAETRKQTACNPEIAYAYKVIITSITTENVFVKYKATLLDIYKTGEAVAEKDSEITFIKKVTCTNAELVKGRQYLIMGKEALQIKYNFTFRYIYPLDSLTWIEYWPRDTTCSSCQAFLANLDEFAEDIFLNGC

With KVERFDDGYWEYPGK ([cyclo(1,6)]Ac-K-V-E-R-F-D-(N-Me)D-Tbg-Y-azaTrp-E-Y-P-Chg-(Lys-C16)) [R3183] the “IC50, hemolysis assay with 1% cynomolgus monkey serum” value was 4.2 nM.

The binders below were run against T1, human C5 protein (human, UniProt P01031 19-673; P01031 678-1676) (assay: cell-based or functional assay).

In the case of KVERFDDGYWEYPGK ([cyclo(1,6)]Ac-K-V-E-R-F-D-(N-Me)D-Tbg-Y-azaTrp-E-Y-P-Chg-(Lys-C16)) [R3183], the “IC50, alternative pathway of complement activation (WIESLAB kit, serum samples)” value is reported as 12.5 nM.

First: KVERFDDGYWEYPGK ([cyclo(1,6)]Ac-K-V-E-R-F-D-(N-Me)D-Tbg-Y-azaTrp-E-Y-P-Chg-(Lys-C16)) [R3183]
Second: Ac-[Nva]C[Phg]T[Trp(7-aza)]EY[NMeS]HC[Nva]P[Nva]-NH2 (linker 2-10 via mXylyl″) [R3008]
The “IC50, formation of the MAC (MAC EIA on human RBC hemolysis supernatant)” value of the first is 4.8-fold lower: 6.9 nM for the first, 33 nM for the second.

First: VCYENGYWEYPGV (Ac-Nvl-C-Y-E-N-Tbg-Y-azaTrp-E-Y-P-Phg-Nvl-NH2) [R3002]
Second: Ac-[Nva]C[Phg]T[Trp(7-aza)]EY[NMeS]HC[Nva]P[Nva]-NH2 (linker 2-10 via mXylyl″) [R3008]
The “IC50, formation of C5a (C5a EIA on human RBC hemolysis supernatant)” value of the first is 10-fold lower: 5.4 nM for the first, 54.5 nM for the second.

Molecular target: T1, human C5 protein
Assay: cell-based or functional assay
Remark: another data set of the same source

First: Ac-CVERFCVYWEF-NH2 (linker 1-6 via mXylyl(3)) [R3124]
Second: Ac-CVERFCDVYWEF-NH2 (linker 1-6 via mXylyl(4)) [R3048]
The “Avg. IC50 (nM), human hemolysis assay” value of the first is higher: > 100000 nM for the first, 19.3 nM for the second.

For Ac-CVERFCWEF-NH2 (linker 1-6 via mXylyl(3)) [R3125], the “Avg. IC50 (nM), human hemolysis assay” value was > 100000 nM.

Molecular target: T1, human C5 protein
Assay: cell-based or functional assay
Remark: another data set of the same source

MCVERFC-NH2 (linker 2-7 via mXylyl(4)) [R3047] and MCVERFCDV-NH2 (linker 2-7 via mXylyl(4)) [R3046] cannot be ordered by “Avg. IC50 (nM), human hemolysis assay” value: > 100000 nM for the first, > 100000 nM for the second.

First: MCVERFCDVY-NH2 (linker 2-7 via mXylyl(4)) [R3045]
Second: MCVERFCDVYWE-NH2 (linker 2-7 via mXylyl(4)) [R3043]
The “Avg. IC50 (nM), human hemolysis assay” value of the first is higher: > 100000 nM for the first, 934 nM for the second.

MCVERFCDVYW-NH2 (linker 2-7 via mXylyl(4)) [R3044] was tested, and the “Avg. IC50 (nM), human hemolysis assay” value was > 50000 nM.

Molecular target: T1, human C5 protein
Assay: cell-based or functional assay
Remark: another data set of the same source

In the case of Ac-[Nva]C[Phg]T[Trp(7-aza)]EY[NMeS]HC[Nva]P[Nva]-NH2 (linker 2-10 via mXylyl″) [R3008], the “Avg. IC50 (nM), human hemolysis assay” value is reported as 97 nM.

Molecular target: T1, human C5 protein
Assay: cell-based or functional assay
Remark: another data set of the same source

MCVERFC-NH2 (linker 2-7 via mXylyl(4)) [R3047] and MCVERFCDV-NH2 (linker 2-7 via mXylyl(4)) [R3046] cannot be ordered by “Avg. IC50, human hemolysis assay” value: > 100000 nM for the first, > 100000 nM for the second.

First: Ac-CVERFCVYWEF-NH2 (linker 1-6 via mXylyl(3)) [R3124]
Second: Ac-CVERFCDVYWEF-NH2 (linker 1-6 via mXylyl(4)) [R3048]
The “Avg. IC50, human hemolysis assay” value of the first is higher: > 100000 nM for the first, 19.3 nM for the second.

First: MCVERFCDVY-NH2 (linker 2-7 via mXylyl(4)) [R3045]
Second: MCVERFCDVYWE-NH2 (linker 2-7 via mXylyl(4)) [R3043]
The “Avg. IC50, human hemolysis assay” value of the first is higher: > 100000 nM for the first, 934 nM for the second.

Going from MCVERFCDVYW-NH2 (linker 2-7 via mXylyl(4)) [R3044] to Ac-[Nva]C[Phg]T[Trp(7-aza)]EY[NMeS]HC[Nva]P[Nva]-NH2 (linker 2-10 via mXylyl″) [R3008], the “Avg. IC50, human hemolysis assay” value falls from > 50000 nM to 97 nM.

In the case of Ac-CVERFCWEF-NH2 (linker 1-6 via mXylyl(3)) [R3125], the “Avg. IC50, human hemolysis assay” value is reported as > 100000 nM.
